In assay [1] the target is HNP-(R14,24orn) (human). Briefly: AUC.
Assay [2] concerns the target human neutrophil peptide-1 (HNP-1) (human). Briefly: AUC.

For the substance HNP-(R14,24orn) (peptide), in assay [1], the population of oligomer turned out to be 8%.

Consider human neutrophil peptide-1 (HNP-1), for which the population of oligomer in assay [2] turned out to be 8%.

Source of the values: paper PMC6291843.
